Data taken from US20090123479A1 (published 2009).
Values belong to the binder of their own block, whether it stands above or below them.

Key:
recombinant human IL-23 [1] = target: T1, recombinant human IL-23 (human, UniProt Q9NPF7 20-189; P29460 23-328); assay: SPR (Biacore T100), tissue culture supernatant antibody captured on anti-human IgG, IL-23 analyte
T1 construct: also called hIL-23
T1 sequence 1: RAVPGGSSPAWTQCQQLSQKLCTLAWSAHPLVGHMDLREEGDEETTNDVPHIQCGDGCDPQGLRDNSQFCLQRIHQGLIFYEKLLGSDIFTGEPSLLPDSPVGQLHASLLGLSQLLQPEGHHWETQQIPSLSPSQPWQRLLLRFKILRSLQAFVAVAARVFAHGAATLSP
T1 sequence 2: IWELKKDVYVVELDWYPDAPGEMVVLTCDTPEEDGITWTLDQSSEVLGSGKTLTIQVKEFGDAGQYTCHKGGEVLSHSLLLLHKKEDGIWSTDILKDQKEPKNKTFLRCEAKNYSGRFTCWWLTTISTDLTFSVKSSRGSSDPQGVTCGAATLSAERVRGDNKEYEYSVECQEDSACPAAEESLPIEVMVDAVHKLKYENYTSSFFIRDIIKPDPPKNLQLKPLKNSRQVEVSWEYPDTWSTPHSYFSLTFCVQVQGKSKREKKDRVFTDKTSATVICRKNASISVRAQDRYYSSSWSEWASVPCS
Protocol: Biacore analysis was carried out using a capture surface on a CM5 chip. Anti-human IgG (BR-1008-39) was used as the capturing agent. Anti-human IgG was coupled to a CM5 biosensor chip by primary amine coupling. Humanized antibody was captured on this immobilised surface and defined concentrations of IL-23 were passed over this captured surface. An injection of buffer over the captured antibody surface was used for double-referencing. […] T100 Biacore machine was used to generate the data; all runs were carried out at 25° C. using HBS EP. Data was analysed using the software inherent to the machine and fitted to the 1:1 model of binding. Tables 7 and 8 detail the IL-23 binding analysis carried out on the 8C92H6.HC1LC1 chimera and selected humanized variants in two separate experiments. […] The data shown for the humanized variants is representative of a number of runs. The chimeric mAb (8C9H6.HC1LC1) was only run once in each experiment, so data shown for this mAb is from that one run.

recombinant human IL-23 [2] = target: T1, recombinant human IL-23; assay: SPR (Biacore 3000), CHO supernatant antibody captured on Protein A or anti-human IgG, IL-23 analyte at 256, 64, 16, 4 nM
recombinant human IL-23 [3] = target: T1, recombinant human IL-23; assay: SPR (Biacore T100), CHO supernatant antibody captured on Protein A or anti-human IgG, IL-23 analyte at 256, 64, 16, 4, 1 nM
recombinant human IL-23 [4] = target: T1, recombinant human IL-23; assay: SPR (Biacore 3000), CHO supernatant antibody captured on Protein A or anti-human IgG, IL-23 analyte at 100, 10, 1 nM
Protocol: Protein A or an anti-human IgG (Biacore BR-1008-39) was immobilised on a Biacore CM5 chip by primary amine coupling in accordance with the manufacturer's instructions. Anti IL-23 antibodies were captured on this surface and after a period of stabilisation, […] was passed over the antibody captured surface and a binding sensorgram was obtained. […] All runs were double referenced with a buffer injection over the captured antibody surface. Data was analysed using the 1:1 model using the software inherent to the Biacore 3000 or T100 depending upon which machine was used to generate kinetics. Analysis was carried out at 25° C. using HBS-EP buffer. Data presented in Tables 3-6 are on tissue culture supernatants of CHO cells transiently expressing the antibody of interest unless otherwise indicated. […]

recombinant human IL-23 [5] = target: T1, recombinant human IL-23; assay: IL-23/IL-23R inhibition ELISA (first protocol, OD490): plate coated with human IL23R Fc chimera, antibody pre-incubated with constant human IL-23, bound IL-23 detected with biotinylated anti-human IL-12; purified antibody
Protocol: (§1) Chimeric and humanized mAbs were assessed for their ability to neutralise human IL-23 binding to human IL-23 receptor, and cyno IL23 binding to human IL23 receptor. Plates were coated with human IL23R Fc chimera at 1 μg/diluent (bicarbonate buffer). 50 μl/well of this mixture was incubated overnight at 4° C. The plates were then washed twice with Tris Buffered Saline with 0.05% Tween 20 (TBST). Plates were blocked with 1% BSA TBST 100 μl/well for a minimum of 1 hour at room temperature. The plates were then washed twice with Tris Buffered Saline with 0.05% Tween 20 (TBST). Various concentrations of antibody were incubated in a separate plate with a constant concentration of IL-23 for 1 hour at room temperature. 50 ul of each mixture were transferred to the assay plate and incubated at RT for 1 hr. They were then washed twice with Tris Buffered Saline with 0.05% Tween 20 (TBST). Bound IL23 was detected by anti human 1L12 Biotin labelled Ab (R&D systems BAF219) diluted to 100 ng/ml in 1% BSA TBST. 50 μl/well of the biotinylated antibody was added and incubated at RT for 1 hour. The plates were then washed twice with Tris Buffered Saline with 0.05% Tween 20 (TBST). ExtrAvidin-Peroxidase (Sigma E2886) was diluted 1/1000 in 1% BSA TBST, 50 μl/well was added to the plates. […] The plate was read at OD490 nm using the SOftmaxPRO versamax plate reader.

recombinant human IL-23 [6] = target: T1, recombinant human IL-23; assay: IL-23/IL-23R inhibition ELISA (first protocol, OD490): plate coated with human IL23R Fc chimera, antibody pre-incubated with constant human IL-23, bound IL-23 detected with biotinylated anti-human IL-12; tissue culture supernatant
Protocol: as §1

Kd (recombinant human IL-23 [1]): 0.17 nM
koff (recombinant human IL-23 [1]): 0.000234 s⁻¹
kon (recombinant human IL-23 [1]): 1.38e+06 M⁻¹ s⁻¹
Kd (recombinant human IL-23 [2]): 1.1 nM
koff (recombinant human IL-23 [2]): 0.00033 s⁻¹
kon (recombinant human IL-23 [2]): 300000 M⁻¹ s⁻¹
Kd (recombinant human IL-23 [3]): 0.92 nM
koff (recombinant human IL-23 [3]): 0.00028 s⁻¹
kon (recombinant human IL-23 [3]): 300000 M⁻¹ s⁻¹
B1: A3M0 (antibody, human IgG1, kappa, V domains shown)
VH: QVQLVQSGAEVKKPGSSVKVSCKASGYTFTSYGITWVRQAPGQGLEWMGENYPRSGNTYYNEKFKGRVTITADKSTSTAYMELSSLRSEDTAVYYCARSEFISTVVAPYYYALDYWGQGTLVTVSS
VL: DIVMTQSPDSLAVSLGERATINCKASKKVTIFGSISALHWYQQKPGQPPKLIYNGAKLESGVPDRFSGSGSGTDFTLTISSLQAEDVAVYYCLQNKEVPYTFGGGTKVEIKR
notes: Full length chains; also called humanized mAb A3M0

Kd (recombinant human IL-23 [4]): 1.4 nM
koff (recombinant human IL-23 [4]): 0.00039 s⁻¹
kon (recombinant human IL-23 [4]): 270000 M⁻¹ s⁻¹
IC50 (read off the curve) (recombinant human IL-23 [5]): ~0.08 µg/mL
IC50 (read off the curve) (recombinant human IL-23 [6]): ~0.006 µg/mL
B2: chimeric 8C92H6 HC1LC1 (antibody, V domains shown)
VH: QVQLQQSGAELARPGTSVKLSCKASGYTFTSYGITWVKQRTGQGLEWIGENYPRSGNTYYNEKFKGKATLTADKSSSTAYMELRSLTSEDSAVYFCARCEFISTVVAPYYYALDYWGQGTSLVTVS
VL: DIVLTQSPASLAVSLGQKATISCKASKKVTIFGSISALHWYQQKPGQPPKLIYNGAKLESGVSARFSDSGSQNRSPFGNQLSFTLTIDPVEADDAATYYCLQNKEVPYTFGGGTKLEIKR
notes: Murine variable regions with human constant regions; also called 8C92H6.HC1LC1 Chimera; 8C9 chimera
